Drawing on publication PMC12362244, “Fidelity, specialization, and evolution of Paramecium PolX DNA polymerases involved in programmed double-strand break DNA repair” (Nucleic Acids Research, 2025), this text covers Km for four proteins.

What all share (assay): steady-state single-nucleotide gap-filling, FAM-primer urea-PAGE, Michaelis-Menten fit
Common to all, as to settings: 1 µM gap-filling DNA (continuous template), 5 nM enzyme, 5 mM MgCl2, pH 7.5, 27°C

Substrate in data set [1]: Nc1nc2c(ncn2[C@H]2C[C@H](O)[C@@H](COP(=O)(O)OP(=O)(O)OP(=O)(O)O)O2)c(=O)[nH]1
The class given is biochemical, Homo sapiens. An excerpt: steady-state single-nucleotide gap-filling, FAM-primer urea-PAGE, Michaelis-Menten fit on Polλxt | all mutants underwent steady-state characterization in gap-filling context (Fig. 4B and C)

Substrate in data set [2]: Nc1nc2c(ncn2[C@H]2C[C@H](O)[C@@H](COP(=O)(O)OP(=O)(O)OP(=O)(O)O)O2)c(=O)[nH]1
The class given is biochemical, Homo sapiens. The source says: steady-state single-nucleotide gap-filling, FAM-primer urea-PAGE, Michaelis-Menten fit on Polλxt | despite an almost normal KM in the […] range
The source holds these as a separate data set.

Substrate in data set [3]: Nc1nc2c(ncn2[C@H]2C[C@H](O)[C@@H](COP(=O)(O)OP(=O)(O)OP(=O)(O)O)O2)c(=O)[nH]1
The format is biochemical, Homo sapiens. This is another data set of the same source.

Substrate in data set [4]: Nc1nc2c(ncn2[C@H]2C[C@H](O)[C@@H](COP(=O)(O)OP(=O)(O)OP(=O)(O)O)O2)c(=O)[nH]1
The class given is biochemical, Paramecium.

B1: Polλxt (Homo sapiens; C543A/DEL464-472/INS464KGET) (protein)
chain: AQPSSQKATNHNLHITEKLEVLAKAYSVQGDKWRALGYAKAINALKSFHKPVTSYQEACSIPGIGKRMAEKIIEILESGHLRKLDHISESVPVLELFSNIWGAGTKTAQMWYQQGFRSLEDIRSQASLTTQQAIGLKHYSDFLERMPREEATEIEQTVQKAAQAFNSGLLCVACGSYRRGKATCGDVDVLITHPDGRSHRGIFSRLLDSLRQEGFLTDDLVSKGETYLGVCRLPGPGRRHRRLDIIVVPYSEFACALLYFTGSAHFNRSMRALAKTKGMSLSEHALSTAVVRNTHGAKVGPGRVLPTPTEKDVFRLLGLPYREPAERDW
notes: Δ1-241; Loop1 residues 464-472 replaced by KGET of Polβ; cleavable N-terminal 14-His tag; E. coli
B1: in data set [1], the Km was 1893 (949.4 - 4602.0) nM.

B2: Polλxt (Homo sapiens; C543A/DEL464-472/H530Y/I492R/INS464KGET/S528N) (protein)
chain: AQPSSQKATNHNLHITEKLEVLAKAYSVQGDKWRALGYAKAINALKSFHKPVTSYQEACSIPGIGKRMAEKIIEILESGHLRKLDHISESVPVLELFSNIWGAGTKTAQMWYQQGFRSLEDIRSQASLTTQQAIGLKHYSDFLERMPREEATEIEQTVQKAAQAFNSGLLCVACGSYRRGKATCGDVDVLITHPDGRSHRGIFSRLLDSLRQEGFLTDDLVSKGETYLGVCRLPGPGRRHRRLDIRVVPYSEFACALLYFTGSAHFNRSMRALAKTKGMSLNEYALSTAVVRNTHGAKVGPGRVLPTPTEKDVFRLLGLPYREPAERDW
notes: as for B1
As for B2, in data set [2], the Km is given as 849.9 (587.8 - 1277.0) nM.

B3: Polλxt (Homo sapiens; C543A/DEL464-472/I492K/INS464KGET) (protein)
chain: AQPSSQKATNHNLHITEKLEVLAKAYSVQGDKWRALGYAKAINALKSFHKPVTSYQEACSIPGIGKRMAEKIIEILESGHLRKLDHISESVPVLELFSNIWGAGTKTAQMWYQQGFRSLEDIRSQASLTTQQAIGLKHYSDFLERMPREEATEIEQTVQKAAQAFNSGLLCVACGSYRRGKATCGDVDVLITHPDGRSHRGIFSRLLDSLRQEGFLTDDLVSKGETYLGVCRLPGPGRRHRRLDIKVVPYSEFACALLYFTGSAHFNRSMRALAKTKGMSLSEHALSTAVVRNTHGAKVGPGRVLPTPTEKDVFRLLGLPYREPAERDW
notes: as for B1
With B3, the Km in data set [3] is reported as 494.7 (237.7 - 937.3) nM.

B4: Polλxt (Homo sapiens; C543A/DEL464-472/E529D/I492K/INS464KGET) (protein)
chain: AQPSSQKATNHNLHITEKLEVLAKAYSVQGDKWRALGYAKAINALKSFHKPVTSYQEACSIPGIGKRMAEKIIEILESGHLRKLDHISESVPVLELFSNIWGAGTKTAQMWYQQGFRSLEDIRSQASLTTQQAIGLKHYSDFLERMPREEATEIEQTVQKAAQAFNSGLLCVACGSYRRGKATCGDVDVLITHPDGRSHRGIFSRLLDSLRQEGFLTDDLVSKGETYLGVCRLPGPGRRHRRLDIKVVPYSEFACALLYFTGSAHFNRSMRALAKTKGMSLSDHALSTAVVRNTHGAKVGPGRVLPTPTEKDVFRLLGLPYREPAERDW
notes: as for B1
As to B4, in data set [4], the Km is reported as 399.3 (247.1 - 607.0) nM.
